Sequences and labels used below:
B1: SC06-191 (scFv)
scFv: EVQLVESGGGVVQPGRSLRLSCVASEFTFSNYGMHWVRQAPGKGLEWVAVIWYDGSNEDYADSVKGRFTISRDNSKNTVYLHMNSLRAEDTAVYFCTRGQYSSTWFLDYWGQGTLVTVSSGTGGSGGTGSGTGGSTDIQLTQSPSTLSASVGDRVTITCRASQSISSWLAWYQQKPGKAPKLLIYKASSLETGVPSRFSGSGSGTDFTLTISSLQPEDFATYYCQQANSFPLTFGGGTKVDIK
B2: SC06-071 (scFv)
scFv: EVQLVESGGGVVQPGRSLRLSCAASGFTFSSYGMHWVRQAPGKGLEWVAMIWSDGSNKYYADSVKGRFTISRDNSKNTLYLQMNSLRVEDTAVYYCASNYGSGSYWGGFDYWGQGTLVTVSSGTGGSGGTGSGTGGSTQSALTQPASVSGSPGQSITISCTGTSSDVGGYNLVSWYQQHPGKAPKLMIYEGSKRPSGVSNRFFGSKSGDTASLTISGLQAEDEADYYCSSYTTSSTHVFGTGTKVTVL
B3: SC05-159 (scFv)
scFv: QVQLVQSGAEVKKPGATVKISCKVSGYTFTDYYMHWVQQAPGKGLEWMGLVDPEDGETIYAEKFQGRVTITADTSTDTAYMELSSLRSDDTAVYYCARAEVMTTINNWYFDLWGRGTLVTVSSGTGGSGGTGSGTGGSTSYVLTQPPSASGTPGQRVTISCSGSSSNIGSNNVSWYQQLPGTAPKLLIYSNNQRPSGVPDRFSGSKSGTSASLAISGLQSEDEADYYCAAWDDSLNGWVFGGGTKLTVL
B4: SC06-078 (scFv)
scFv: EVQLVESGAEVKKPGSSVKVSCKASGGTFSSYAISWVRQAPGQGLEWMGGIIPIFGTANYAQKFQGKVTITADESTSTAYMELSSLRSEDTAVYYCARLSPRYYGMDVWGQGTTVTVSSGTGGSGGTGSGTGGSTQSALTQPRSVSGSPGQSVTISCTGTSSDVGGYNYVSWYQQHPGKAPKLMIYGGSERPSGVSNRFSGSKSGNTASLTISGVQAEDEADYYCSSYTSSGTLLFGGGTQLTVL
B5: SC06-089 (scFv)
scFv: EVQLVETGGGLVQPGGSLRLSCAASGFTFSSYSMNWVRQAPGKGLEWVSFISSSSSTIYYADSVKGRFTIARDNAKNSLYLQMNSLRDEDTAVYYCARPVGTGISLFHAFDIWGQGTMVTVSSGTGGSGGTGSGTGGSTQSVLTQPPSVSVAPGQTARITCGGNNIGSKYVHWYQQKPGQAPVLVVYDDSDRPSGIPERFSGSNSGNTATLTISRVEAGDEADFYCQVWDGSSDPVVFGGGTKLTVL
B6: SC06-077 (scFv)
scFv: QVQLVQSGAEVKKPGSSVKVSCKASGGTFSSYAISWVRQAPGQGLEWMGGIIPIFGTANYAQKFQGRVTITADESTSTAYMELSSLRSEDTAVYYCAREGGVGPAFDIWGQGTMVTVSSGTGGSGGTGSGTGGSTDIQMTQSPDSLAVSLGERATINCKSSQSVLHNSNNKNYLAWYQQKPGQPPKLLIYWASTRESGVPDRFSGSGSGTDFTLTISSLQAEDVAVYYCQQYYGSPYTFGQGTKLEIK
B7: SC06-241 (scFv)
scFv: EVQLVESGGGLVQPGRSLRLSCAASGFTFRSYAMYWVRQAPGKGLEWLALISHDASKMFYADSVKGRFTISRDNSKNTLSLQMNSLTIEDTAVYYCVRERTGYYGAYWGQGTLVTVSSGTGGSGGTGSGTGGSTDIQMTQSPSSLSASVGDRVTLTCRASQGIGTWLAWYQQKPGKAPKLLIYSASSLQSGVPSRFSGSGSGTDFTLSISNLQPEDFATYYCQQANSFPITFGQGTRLEIK
B8: SC06-092 (scFv)
scFv: EVQLVESGGGLVQPGRSLRLSCTGSGFTFGDYAMSWFRQAPGKGLEWVGFIRNKAYGGTAEYAASVKDRFIISRDDSKSIAYLQMNSLKTEDTAVYYCVRREYDTGWLDYWGQGTLVTVSSGTGGSGGTGSGTGGSTQSALTQPPSASGSPGQSVTISCTGTSSDVGGYNYVSWYQRHPGKAPKLMIYDVTDRPSGVSNRFSGSKSGNTASLTISGLQAEDEADYYCSSYTSSSTSAVFGGGTKLTVL
B9: SC05-157 (scFv)
scFv: EVQLVESGAEVKKPGESLKISCKGSGYSFTNYWIGWVRQMPGKGLEWMGIVYPGDSDTRYSPSFQGQVTISADKSISTAYLQWSSLKASDTAVYYCARRMAVAGSDAFDIWGQGTMVTVSSGTGGSGGTGSGTGGSTQAVLTQPSSASGTPGQTVTISCSGSTSNIGSHNVNWYQHLPGTAPKLLIYINNKRPSGVPDRFSGSKSGSSASLAISGLQSEDEADYYCAAWDDSLRRPVFGGGTQLTVL
B10: SC06-079 (scFv)
scFv: EVQLVESGGGLVQPGGSLRLSCAASGFTFSSYAMSWVRQAPGKGLEWVSAISGTGGSAYYADSVKGRFTISRDNSKNTVYLQMNSLRAEDTAVYYCAKGHSSGTNWGQGTLVTVSSGTGGSGGTGSGTGGSTSYVLTQPPSASGTPGQRVTISCSGSSSNIGSNFVYWYQQLPGTAPKLLIYRNNQRPSGVPDRFSGSKSGTSASLAISGLRSEDEADYYCAAWDDSLSGVLFGGGTQLTVL
B11: SC06-198 (scFv)
scFv: QLQLQESGPGLVKPSETLSLTCAVSGYSITSGYYWGWVRQPPGKGLEWIGSIYHTGSTYYNPSLKSRVTISVDTSKNQFSLKLNSLTAADTAVYFCASQSPAFDFWGQGTMVTVSSGTGGSGGTGSGTGGSTQSVLTQPPSVSGAPGQRVTISCTGSSSNIGTGYDVHWYQQLPGTAPKLLIYGNNNRPSGVPDRFSGSKSGTSASLAITGLQAEDEADYYCATWDDSLNGWVFGGGTKLTVP
B12: SC06-246 (scFv)
scFv: EVQLVESGGGLIQPGGSLRLSCAASGFTVSSDFMTWVRQAPGRGLEWVSLIYSGGKTNYADSVKGRFTISRDNSRNTLYLQMNSLRAEDTAVYYCARSVCSTISCSKLDDWGQGTLVTVSSGTGGSGGTGSGTGGSTQAVLTQPSSVSVAPGQTARITCGGNNIGRKSVHWYQQKPGLAPVLVVNDNSDRPSGIPARFSGSNSGNTATLTISRVEAGDEADYYCHVWGSSRDHYVFGTGTKVTVL
B13: SC06-087 (scFv)
scFv: EVQLVESGGGLVKPGGSLRLSCAASGFTFSSNSMNWVRQAPGKGLEWVSFISSSSTYIYYADSVKGRFTISRDNAKNSLYLQMNSLRAEDTAVYYCARESAAGISYDAFDIWGQGTMVTVSSGTGGSGGTGSGTGGSTQSALTQPASVSGSPGQSITISCTGTSSDVGGYKYVSWYQQHPGKAPKLMIYEVSNRPSGVSNRFSGSKSGSTASLTISGLQAEDEADYYCSSYTSSSTLGVFGTGTKVTVL
B14: SC06-242 (scFv)
scFv: EVQLVESGPGLVKPSETLSLTCTVSGGSISSYYWSWIRQPPGKGLEWIGYIYYTGTTNYNPSLNSRVTISADTSKNQFSLKLSSVTAADTAVYYCARGGQTAGVWGKGTTVTVSSGTGGSGGTGSGTGGSTQSVLTQPPSVSVAPGQTARITCGGYNIGRKSVHWYQQKPGLAPVLVVYDNSDRPSGIPARFSGSNSGNTATLTISGTQAMDEADYYCQAWDRGTAVFGTGTKVTVL

The target in this experiment is T1, BSA (bovine serum albumin) (bovine (송아지 혈청 알부민), UniProt P02769 25-607).
T1 construct: Negative control antigen of the phage ELISA; also called 송아지 혈청 알부민
T1 sequence (P02769 25-607 limits assumed): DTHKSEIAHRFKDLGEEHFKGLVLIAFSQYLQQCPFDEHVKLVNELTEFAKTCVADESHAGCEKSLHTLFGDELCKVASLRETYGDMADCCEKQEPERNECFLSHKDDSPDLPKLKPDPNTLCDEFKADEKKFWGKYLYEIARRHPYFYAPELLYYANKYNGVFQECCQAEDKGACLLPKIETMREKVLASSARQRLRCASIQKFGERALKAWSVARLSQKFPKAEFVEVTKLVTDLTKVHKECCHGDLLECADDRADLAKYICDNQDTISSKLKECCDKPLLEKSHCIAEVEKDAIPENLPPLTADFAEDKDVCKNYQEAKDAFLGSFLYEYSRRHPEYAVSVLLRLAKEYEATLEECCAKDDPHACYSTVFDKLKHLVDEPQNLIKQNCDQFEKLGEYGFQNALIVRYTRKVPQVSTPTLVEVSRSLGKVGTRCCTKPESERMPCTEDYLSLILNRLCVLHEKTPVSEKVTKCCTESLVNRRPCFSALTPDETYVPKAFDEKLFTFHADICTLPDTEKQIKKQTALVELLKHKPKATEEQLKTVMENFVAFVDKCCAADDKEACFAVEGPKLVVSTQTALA
Briefly: phage ELISA, 1% BSA coated, anti-M13 peroxidase, OD 492 nm.
Consider B1, for which the binding result is reported as “no binding”. For B2, the binding result is reported as “no binding”. Take B3: the binding result is listed as “no binding”. Take B4: the binding result is given as “no binding”. Consider B5, for which the binding result is “no binding”. Under B6 stands “no binding”; under B7, “no binding”; under B8, “no binding”. Turning to B9, the binding result is given as “no binding”. For B10, the binding result is “no binding”. On to B11, for which the binding result is “no binding”. Turning to B12, the binding result is “no binding”. Regarding B13, the binding result is given as “no binding”. B14: the binding result is “no binding”.

The values above are taken from patent KR20140095558A (dated 2014).
